Assay results: paper PMC10075959 (Science Advances, 2023)
Read-outs that look alike come from different tables or passages of the source.

Assays:
[1] = target: the molecule itself; experiment: AUC + other: circular dichroism
AUC = target: the molecule itself; experiment: AUC
[2] = target: the molecule itself; experiment: AUC + other: circular dichroism; remark: listed apart in the source

Row | Protein | Kd [1] [µM] | stoichiometry N (AUC) | Kd [2] [µM]
1 | MASGGGETALALLLLDRLNQLESKVSGKGQQQ [SARS-CoV-1 nucleocapsid LRS peptide 211-242] | 500 | – | –
2 | MERS nucleocapsid LRS peptide 197-238 (peptide) peptide: not shown | 110 | – | –
3 | RQPASTVKPDMAEEIAALVLAKLGKDAGQPKQV (also called murine hepatitis virus) [MHV nucleocapsid LRS peptide 223-255] | 800 | – | –
4 | TRSDSNQSSSDLVAAVTLALKNLGFDNQSKSPSSSGT (also called human coronavirus NL63) [NL63 nucleocapsid LRS peptide 174-210] | 140 | – | –
5 | 229E-related bat coronavirus nucleocapsid LRS peptide 170-221 (peptide) peptide: NERLPKSNSKQSNQDDIMAAVAAALEKLGFERPNDASQPQKKQNKGTPKPSR | 290 | – | –
6 | MAGNGGDAALALLLLDRLNQLESKMSGKGQQQQGQTV [SARS-CoV-2 N-protein leucine-rich sequence peptide N:210-246 (NLRS)] | – | 3 | 810
